Experimental findings from PMC8489946 (RNA Biology, 2021) are described below.

The target of this assay is T1, upf1-DE572AA-GFP (S. cerevisiae, UniProt P30771 1-971, DE572AA).
T1 sequence (looked up): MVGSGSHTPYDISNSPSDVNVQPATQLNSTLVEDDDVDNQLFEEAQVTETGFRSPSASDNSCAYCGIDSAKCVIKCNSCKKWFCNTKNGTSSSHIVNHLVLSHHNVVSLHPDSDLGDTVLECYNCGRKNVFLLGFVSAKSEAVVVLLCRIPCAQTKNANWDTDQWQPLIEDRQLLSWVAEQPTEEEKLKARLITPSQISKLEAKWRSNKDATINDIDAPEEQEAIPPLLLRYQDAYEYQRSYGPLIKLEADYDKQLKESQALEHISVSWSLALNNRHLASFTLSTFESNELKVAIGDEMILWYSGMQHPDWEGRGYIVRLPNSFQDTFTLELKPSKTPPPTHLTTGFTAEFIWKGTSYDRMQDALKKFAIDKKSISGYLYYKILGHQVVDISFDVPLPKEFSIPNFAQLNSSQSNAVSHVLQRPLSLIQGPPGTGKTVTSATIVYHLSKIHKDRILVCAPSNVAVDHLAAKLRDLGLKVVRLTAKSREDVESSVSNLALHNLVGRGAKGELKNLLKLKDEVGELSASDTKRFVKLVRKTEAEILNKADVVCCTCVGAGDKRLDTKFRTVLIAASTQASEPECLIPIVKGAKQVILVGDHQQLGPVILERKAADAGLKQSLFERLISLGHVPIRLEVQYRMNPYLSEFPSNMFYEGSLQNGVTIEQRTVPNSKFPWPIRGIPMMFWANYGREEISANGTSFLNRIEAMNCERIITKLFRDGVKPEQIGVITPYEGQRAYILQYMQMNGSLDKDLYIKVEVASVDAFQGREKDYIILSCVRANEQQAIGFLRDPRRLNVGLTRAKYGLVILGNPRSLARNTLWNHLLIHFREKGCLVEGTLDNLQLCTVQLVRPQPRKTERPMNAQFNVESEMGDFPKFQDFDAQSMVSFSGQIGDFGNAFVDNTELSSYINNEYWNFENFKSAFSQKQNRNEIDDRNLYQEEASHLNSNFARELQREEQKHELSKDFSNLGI
The experiment in a line: co-IP.

B1: Gbp2 (natural protein, UniProt P25555 1-427, looked up)
chain: MERELGMYGNDRSRSRSPVRRRLSDDRDRYDDYNDSSSNNGNGSRRQRRDRGSRFNDRYDQSYGGSRYHDDRNWPPRRGGRGRGGSRSFRGGRGGGRGRTLGPIVERDLERQFDATKRNFENSIFVRNLTFDCTPEDLKELFGTVGEVVEADIITSKGHHRGMGTVEFTKNESVQDAISKFDGALFMDRKLMVRQDNPPPEAAKEFSKKATREEIDNGFEVFIINLPYSMNWQSLKDMFKECGHVLRADVELDFNGFSRGFGSVIYPTEDEMIRAIDTFNGMEVEGRVLEVREGRFNKRKNNDRYNQRREDLEDTRGTEPGLAQDAAVHIDETAAKFTEGVNPGGDRNCFIYCSNLPFSTARSDLFDLFGPIGKINNAELKPQENGQPTGVAVVEYENLVDADFCIQKLNNYNYGGCSLQISYARRD
Consider B1, for which the “fold co-precipitation relative to wild-type Upf1-GFP” value was above 1.5 fold.
